Assay results as given in patent publication US6028053A, “Peptide inhibitors of a phosphotyrosine-binding domain containing protein” (Mount Sinai Hospital Corporation, priority 1998, dated 2000).
Square brackets hold non-standard residues; d marks the D form. Ends that are not written are not given here. pY = N[C@@H](Cc1ccc(OP(=O)(O)O)cc1)C(=O)O

Experiments:
[1] = molecular target: GST-Shc PTB domain fusion protein (human) (UniProt P29353); experiment: SPR (Biacore) competition, Table 1
[2] = molecular target: GST-Shc PTB domain fusion protein (human) (UniProt P29353); experiment: not stated in Table 2; the same number as the IC50 of Table 1
[3] = molecular target: GST-Shc PTB domain fusion protein (human) (UniProt P29353); experiment: SPR (Biacore) competition, Table 1; remark: listed apart in the source
[4] = molecular target: GST-Shc PTB domain fusion protein (human) (UniProt P29353); experiment: competition with EGF-R for GST-ShcB beads, dose response, anti-phospho-Tyr blot
[5] = molecular target: GST-Shc PTB domain fusion protein (human) (UniProt P29353); experiment: not stated in Table 2; presumably as the IC50 of Table 1

Sequence of GST-Shc PTB domain fusion protein (human) (P29353 111-319 limits assumed): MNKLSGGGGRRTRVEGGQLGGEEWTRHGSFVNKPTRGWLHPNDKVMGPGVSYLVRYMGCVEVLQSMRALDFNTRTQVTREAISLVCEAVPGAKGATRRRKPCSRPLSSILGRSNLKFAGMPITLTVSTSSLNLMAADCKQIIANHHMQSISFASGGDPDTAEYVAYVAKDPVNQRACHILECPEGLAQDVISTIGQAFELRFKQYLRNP

Molecule: Wt NGF receptor phosphopeptide His-Ile-Ile-Glu-Asn-Pro-Gln-P.Tyr-Phe-Ser-Asp
- fold increase of the affinity against the peptide with Ala at -2 [1]: 10 fold
- value printed beside the sequence without a heading [2]: 175 nM

Molecule: HAAENPQ[pY]FSD [Ala-6, Ala-5 NGF receptor peptide H-A-A-E-N-P-Q-p.Y-F-S-D]
- fold lower affinity against a phosphopeptide with an Ile at either position -6 or -5 [3]: 3 fold

B1: C-1, Cyclo-(IENPQpYFSPG) (peptide)
peptide: cyclo(IENPQ[pY]FSPG)
SMILES: CC[C@H](C)[C@@H]1NC(=O)CNC(=O)[C@@H]2CCCN2C(=O)[C@H](CO)NC(=O)[C@H](Cc2ccccc2)NC(=O)[C@H](Cc2ccc(OP(=O)(O)O)cc2)NC(=O)[C@H](CCC(N)=O)NC(=O)[C@@H]2CCCN2C(=O)[C@H](CC(N)=O)NC(=O)[C@H](CCC(=O)O)NC1=O
- percent inhibition at 100 µM [4]: 50%

Molecule: IENPQ[pY]FSD [Trk wild type truncated phosphopeptide IENPQpYFSD]
- value printed beside the sequence without a heading [5]: 4 µM
